B1: Hammerhead Ribozyme (parent)
chain: ACCGGAUGUGCUUUCCGGUCUGAUGAGUCCGUGAGGACGAAACAG

Variants of: B1
Assay: self-cleavage, relative activity (ratio to wild type); higher = more cleavage; co-transcriptional
For ACCGAAUGUGCUUUCCGGUCUGAUGAGUCCGUGAAGACGAAACAG, the self-cleavage was 0.642.
Work on ACCGAAUGUGCUUUCCGGUCUGAUGAGUCCGUGACGACGAAACAG yielded a self-cleavage of 0.66.
Variant ACCGAAUGUGCUUUCCGGUCUGAUGAGUCCGUGAUGACGAAACAG has a self-cleavage of 0.848.
With ACCGAAUGUGCUUUCCGGUCUGAUGAGUCCGUGAGAACGAAACAG the self-cleavage was 0.667.
With ACCGAAUGUGCUUUCCGGUCUGAUGAGUCCGUGAGCACGAAACAG the self-cleavage was 0.384.
For ACCGAAUGUGCUUUCCGGUCUGAUGAGUCCGUGAGUACGAAACAG, the self-cleavage was 0.41.
ACCGAAUGUGCUUUCCGGUCUGAUGAGUCCGUGAGGACAAAACAG gave a self-cleavage of 0.353.
Variant ACCGAAUGUGCUUUCCGGUCUGAUGAGUCCGUGAGGACCAAACAG has a self-cleavage of 0.328.
For ACCGAAUGUGCUUUCCGGUCUGAUGAGUCCGUGAGGACUAAACAG, the self-cleavage was 0.329.
ACCGAAUGUGCUUUCCGGUCUGAUGAGUCCGUGAGGACGAAACAA gave a self-cleavage of 0.61.
Work on ACCGAAUGUGCUUUCCGGUCUGAUGAGUCCGUGAGGACGAAACAC yielded a self-cleavage of 0.554.
ACCGAAUGUGCUUUCCGGUCUGAUGAGUCCGUGAGGACGAAACAU showed a self-cleavage of 0.587.
ACCGAAAGUGCUUUCCGGUCUGAUGAGUCCGUGAGGACGAAACAG gave a self-cleavage of 0.95.
ACCGAACGUGCUUUCCGGUCUGAUGAGUCCGUGAGGACGAAACAG gave a self-cleavage of 1.06.
For ACCGAAGGUGCUUUCCGGUCUGAUGAGUCCGUGAGGACGAAACAG, the self-cleavage was 1.56.
Work on ACCGAAUGAGCUUUCCGGUCUGAUGAGUCCGUGAGGACGAAACAG yielded a self-cleavage of 1.27.
ACCGAAUGCGCUUUCCGGUCUGAUGAGUCCGUGAGGACGAAACAG gave a self-cleavage of 1.37.
For ACCGAAUGGGCUUUCCGGUCUGAUGAGUCCGUGAGGACGAAACAG, the self-cleavage was 0.88.
For ACCGAAUGUGCAUUCCGGUCUGAUGAGUCCGUGAGGACGAAACAG, the self-cleavage was 1.22.
ACCGAAUGUGCCUUCCGGUCUGAUGAGUCCGUGAGGACGAAACAG showed a self-cleavage of 1.07.
Variant ACCGAAUGUGCGUUCCGGUCUGAUGAGUCCGUGAGGACGAAACAG has a self-cleavage of 1.31.
ACCGAAUGUGCUAUCCGGUCUGAUGAGUCCGUGAGGACGAAACAG showed a self-cleavage of 1.68.
ACCGAAUGUGCUCUCCGGUCUGAUGAGUCCGUGAGGACGAAACAG showed a self-cleavage of 1.6.
With ACCGAAUGUGCUGUCCGGUCUGAUGAGUCCGUGAGGACGAAACAG the self-cleavage was 1.72.
ACCGAAUGUGCUUACCGGUCUGAUGAGUCCGUGAGGACGAAACAG gave a self-cleavage of 1.58.
Work on ACCGAAUGUGCUUCCCGGUCUGAUGAGUCCGUGAGGACGAAACAG yielded a self-cleavage of 1.49.
ACCGAAUGUGCUUGCCGGUCUGAUGAGUCCGUGAGGACGAAACAG gave a self-cleavage of 1.41.
ACCGAAUGUGCUUUCCGGACUGAUGAGUCCGUGAGGACGAAACAG gave a self-cleavage of 0.382.
For ACCGAAUGUGCUUUCCGGCCUGAUGAGUCCGUGAGGACGAAACAG, the self-cleavage was 0.565.
In the case of ACCGAAUGUGCUUUCCGGGCUGAUGAGUCCGUGAGGACGAAACAG, the self-cleavage is reported as 0.373.
In the case of ACCGAAUGUGCUUUCCGGUCAGAUGAGUCCGUGAGGACGAAACAG, the self-cleavage is reported as 0.57.
ACCGAAUGUGCUUUCCGGUCCGAUGAGUCCGUGAGGACGAAACAG gave a self-cleavage of 0.977.
Variant ACCGAAUGUGCUUUCCGGUCGGAUGAGUCCGUGAGGACGAAACAG has a self-cleavage of 0.378.
With ACCGAAUGUGCUUUCCGGUCUGAAGAGUCCGUGAGGACGAAACAG the self-cleavage was 1.21.
In the case of ACCGAAUGUGCUUUCCGGUCUGACGAGUCCGUGAGGACGAAACAG, the self-cleavage is reported as 1.43.
With ACCGAAUGUGCUUUCCGGUCUGAGGAGUCCGUGAGGACGAAACAG the self-cleavage was 0.965.
In the case of ACCGAAUGUGCUUUCCGGUCUGAUGAGACCGUGAGGACGAAACAG, the self-cleavage is reported as 0.364.
Work on ACCGAAUGUGCUUUCCGGUCUGAUGAGCCCGUGAGGACGAAACAG yielded a self-cleavage of 0.654.
With ACCGAAUGUGCUUUCCGGUCUGAUGAGGCCGUGAGGACGAAACAG the self-cleavage was 0.377.
With ACCGAAUGUGCUUUCCGGUCUGAUGAGUCCGAGAGGACGAAACAG the self-cleavage was 1.32.
Work on ACCGAAUGUGCUUUCCGGUCUGAUGAGUCCGCGAGGACGAAACAG yielded a self-cleavage of 1.15.
For ACCGAAUGUGCUUUCCGGUCUGAUGAGUCCGGGAGGACGAAACAG, the self-cleavage was 0.533.
ACCGCAUGUGCUUUCCGGUCUGAUGAGUCCGUGAGGACGAAACAG showed a self-cleavage of 0.669.
For ACCGCCUGUGCUUUCCGGUCUGAUGAGUCCGUGAGGACGAAACAG, the self-cleavage was 0.423.
Work on ACCGCGUGUGCUUUCCGGUCUGAUGAGUCCGUGAGGACGAAACAG yielded a self-cleavage of 0.437.
With ACCGCUUGUGCUUUCCGGUCUGAUGAGUCCGUGAGGACGAAACAG the self-cleavage was 0.631.
Variant ACCGCAUGUGCUUUCCGGUCUGCUGAGUCCGUGAGGACGAAACAG has a self-cleavage of 0.326.
In the case of ACCGCAUGUGCUUUCCGGUCUGGUGAGUCCGUGAGGACGAAACAG, the self-cleavage is reported as 0.324.
In the case of ACCGCAUGUGCUUUCCGGUCUGUUGAGUCCGUGAGGACGAAACAG, the self-cleavage is reported as 0.221.
For ACCGCAUGUGCUUUCCGGUCUGAUGCGUCCGUGAGGACGAAACAG, the self-cleavage was 0.282.
In the case of ACCGCAUGUGCUUUCCGGUCUGAUGGGUCCGUGAGGACGAAACAG, the self-cleavage is reported as 0.267.
With ACCGCAUGUGCUUUCCGGUCUGAUGUGUCCGUGAGGACGAAACAG the self-cleavage was 0.339.
Work on ACCGCAUGUGCUUUCCGGUCUGAUGAGUCCGUGCGGACGAAACAG yielded a self-cleavage of 0.336.
For ACCGCAUGUGCUUUCCGGUCUGAUGAGUCCGUGGGGACGAAACAG, the self-cleavage was 0.74.
With ACCGCAUGUGCUUUCCGGUCUGAUGAGUCCGUGUGGACGAAACAG the self-cleavage was 0.477.
ACCGCAUGUGCUUUCCGGUCUGAUGAGUCCGUGAGGCCGAAACAG showed a self-cleavage of 0.259.
Work on ACCGCAUGUGCUUUCCGGUCUGAUGAGUCCGUGAGGGCGAAACAG yielded a self-cleavage of 0.44.

— the RNAGym collection of RNA variant scans (doi:10.7554/elife.80360)
